The record followed here is the nanobody polyreactivity screen of Harvey et al. (2022).

The nature of the data set: yeast display, Sf9 membrane polyspecificity reagent, FACS + sequencing; frameworks hold sequencing errors. A digest of the protocol:
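Galactose induction of a Saccharomyces cerevisiae BJ5465 synthetic nanobody display library ran 36–48 hours. The cells were then stained for 1 hour at 4 °C with 10% biotinylated, detergent-solubilized Sf9 membrane reagent, pulled down on streptavidin microbeads and FACS-sorted into low and high (top ~1%) gates on expression and reagent-binding fluorescence. Labels for polyreactivity follow the gate of origin.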
As for “QVQLVESGGVLVQAGGSLRLSCAASGRTFGGNVMAWYRQAPGKERELVAAISYSGGSTHYADSVKGRFTNSRDNAKNTVYLQMNSLKPEDTAVYYCAKDGEVTGDYWGLGTQVTVSS”, the “polyreactivity (PSR sort gate)” value is “low polyreactivity”.

Take “QVQLVESGGGLVQAGGSLRLSCAASGRIFPYYAMGWYRQAPGKERELVAAISYRGTRTSYADSVKGRFTISRDNAKNTVYLQMNSLKPEDTAVYYCAAQRYFGISWPYDYWGQGTQVTVSS”: the “polyreactivity (PSR sort gate)” value is on record as “high polyreactivity”.

“QVQLVESGGGLVQSGGSLRLSCAASGRIFGAYAMGWYRQAPGKDRELVAAITSAGSTHYADSVKGRFTISRDNAKNTVYLQMNSLKPEDTAVYYCAADGIASAYVLFDAYDFLYDYWGQGTQVTVSS”: the “polyreactivity (PSR sort gate)” value is listed as “low polyreactivity”.

Consider “QVQLVESGGGLVQAGGSLRLSCAASGFIFGYNAMGWYRQAPGKERELLAAITWIGGTTYYADSVKGRFTISRDNAKNTVYLQMNSLNPEDTAVYYCARQRSYGRYSYSYVYEYWGQGTLVTVSS”, for which the “polyreactivity (PSR sort gate)” value is “high polyreactivity”.

Turning to “QVQLVESGGGLVQAGGSLRLSCAASGSIFGSNALGWSRQAPGKERELVAAITWSDGSTYYADSVKGRFTISRDNAKNTVYLQMNSLKPEDTAVYVRATDYGYSWYDYWGQGTQVTVSS”, the “polyreactivity (PSR sort gate)” value is on record as “low polyreactivity”.

As to “QVQLVESGGGLVQAGGSLRLSCAASGSTSQYNAMGWYRQAPGKERELVAAISWSGTSTYYADSVKGRFTISRDNAKNTVYLQMNSLKPEDTAVYYCAADYIFDYDYWGQGTQVTVSS”, the “polyreactivity (PSR sort gate)” value is recorded as “low polyreactivity”.

For “QVQLVESGGVLVQAGGSLRLSCPASGRIYDGYAMGWYRQAPGKERELVAAINSNDGTTYYADSVKGRFTISRDNAKNTVYLQMNSLKPEDTAVYYCAKVSYNAWSYGPQMDYWGQGTQVTVSS”, the “polyreactivity (PSR sort gate)” value is on record as “low polyreactivity”.

For the sequence “QVQLVESGGGLVQAGGSLRLSCAASGRTFHPYAMGWYRQAPGKERELVAAITSIGGSTFYADSVKGRFTISRDNAKNNVYLQLTSLKPEDTAVYFCNAESSYYYGTAAYEYWGQGTQVSVSS”, the “polyreactivity (PSR sort gate)” value is “low polyreactivity”.

As for “QVQLVESGGGLVQAGGSLRLSCAASGFTFDFYAMGWYRQAPGKERELVAVISSSGRTYYADSVKGRFTISRDNAKNTVYLQMNSLKPEDTAVYYCAAKAKRGHTYDYWGQGTQVTVSS”, the “polyreactivity (PSR sort gate)” value is recorded as “high polyreactivity”.

Turning to “QVQLVESGGGLVQAGGSLRLSCAASGFTFNTYAMGWYRQAPGKERELVAAITTSGGSTYYADSVKGRFTISRDNAKNTVYLQMNSLKPEDTAVYSCAAKSGRGVVRGRDDYWGQGTQVTVSS”, the “polyreactivity (PSR sort gate)” value is listed as “high polyreactivity”.

As for “QVQLVESGGGLVQAGGSLRLICAASGFTLDWYVMGWYRQAPGKERELVAAISSSGGRTYYADSVKGRFTISRDNEKNTVYLQMNSLKPEDPAVYYCAARNKYGGYPYGYDYWGQGTQVTVSS”, the “polyreactivity (PSR sort gate)” value was “high polyreactivity”.

Take “QVQLVESGGGLVQAGGSLRLSCAASGRTFRGNAMGWYRQAPGKERELVATITFSGGSTYYADSVKWRFTISRDNAKNTVYLQMNSLKPEDTAVYYCAVRGLHLVWVPFGYDYWGQGTQVTVSS”: the “polyreactivity (PSR sort gate)” value is recorded as “low polyreactivity”.

For “QVQLVESGGGLVQAGGSLRISCAASGSIFSFYAMGWYRQAPGKERELVAAISSGGSTYYADSVKGRFTISRDNAKNTVYLQMNSLKPEDTAVYYCAHGFAQYGLDLDPGDYDYWGQGTQVTVSS”, the “polyreactivity (PSR sort gate)” value is listed as “low polyreactivity”.

For “QVQLVESGGGLVQAGGSLRLSCAASGRTFGFYGMGWYRQAPGKEREFVAAITRRGGSTYYADSVKGRFTISRDNAKNTVYLQMNRLKPEDTAVYYCAAGYSSRYRGGLDYWGQGTQVTVSS”, the “polyreactivity (PSR sort gate)” value is “high polyreactivity”.

“QVQLVESGGGLVQAGGSLRLSCAATGRIFTINAMGWYRQAPGKERELVAGITKSGGITYYADSVKGRFTISRDNAKNTVYLQMNSLKPEDTAVYYCAAPFNRWRARTGFDYWGQGTQVTVSS”: the “polyreactivity (PSR sort gate)” value is given as “high polyreactivity”.

Take “QVQLQESGGGLVQAGGSLRLSCAASCTISQEDWMGWYRQAPGKEREFVAAIGLGSNTNYADSLKGRFTISRDNAKNTVYLQMNSLKPEDTAVSYCAVSVWQYSDHVYRGQGTQVTVSS”: the “polyreactivity (PSR sort gate)” value is listed as “low polyreactivity”.

With “QVQLVESGGGLVQAGGSLRLSCAASGSIFWFYAMGWYRQAPGKERELVAAISYSGGITYYADSVKGRFTISRDNAKNTVYLQMNSLKPEDTAVYYCNADGPSTPWVDYGYWGQGTQVTVSS”, the “polyreactivity (PSR sort gate)” value was “low polyreactivity”.

Take “QVQLVESGGGLVQAGGSLRLSCAASGITFRTNAMGWYRQAPGKERELVAVISSTGGRTYYADSVKGRFTISRDNAKNTVYLQMNSLNPEDTAVYYCAARAKYRFGYDYWGQGTQVTVSS”: the “polyreactivity (PSR sort gate)” value is “high polyreactivity”.

Consider “QVQLVDSGGGLVQAGGSLRLSCADSGSIFGVYAMGWYRQATGKESELVAAISISDGITYYADSVKGRFTISRDNAKNNVYLQMNSLKPEDTAVYYCAAELSPYYYGESYDYWGQGTQVTVSS”, for which the “polyreactivity (PSR sort gate)” value is listed as “high polyreactivity”.

Consider “QVQLVESGGGLVKAGGSLRLSSAASGSTFERYAMGWYRQAPGNERELVAAINWSGGGTYYADSVKGRFTISRDTAKNTVYLQMNSLKPEDTAVYYCAADSGTVVFSLWWYEYYYWGQGNQVTVSS”, for which the “polyreactivity (PSR sort gate)” value was “low polyreactivity”.

Consider “QDQLVESGGGLDQAGGSLRLSCAASGSTLGNNAMGWYRQAPGKERELVAAISTRGGSTYYADSVKGRFTISRDNAKNTVYLQMNSLKPEDTAVYYCAADFGQYHGDVRKMDYWGQGTQVTVSS”, for which the “polyreactivity (PSR sort gate)” value was “low polyreactivity”.

Turning to “QVQLVESGGGLVQAGGSLRLSCAASGSTFPGYAMGWYRQAPGKERELVATISSGGSTNYADSVKGRFTISRDNAKNTVYLQMNSLKPEDTAVYYCAKLRSAKFRYGYWGQGTQVTVSS”, the “polyreactivity (PSR sort gate)” value is reported as “low polyreactivity”.

Take “QVQLVESGGGLVQAGGSLRLSCAASGSTFKDNAMGWYIQAPGKERELVASITGRGGSTYYADSVKGRFTISRDNAKNTVYLHMNSLKPEDTAVYYCAARAYYGVYKSPYDYWGQGTQVTVSS”: the “polyreactivity (PSR sort gate)” value is “high polyreactivity”.

Regarding “QVQLVESGGGLVQAGGSLRLSCAASGSIFDPYAMGWYRQAPGKERELVAVINDGGRTTYADSVKGRFTISRDNAKNTVYLQMNSLKPEDTAVYYCAATYYFSRWDLFGYWGQGTQVTVSS”, the “polyreactivity (PSR sort gate)” value is reported as “low polyreactivity”.

Consider “QVQLVESGGGLVQAGGSLRLSCAASGGTFDTYDMGWYRQAPGKERELVAAIRFGDGTTYYADSVKGRFTISRDNAKNTVYLQMNSLKPEDTAVYYCNTDDPGNYWYAEYDYWGQGTQVTVSS”, for which the “polyreactivity (PSR sort gate)” value is given as “low polyreactivity”.

Consider “QVQLVESGGGLVQGGGSLRLSCAASGSNLQINAMGWYRQAPGKERELVAANDWGGGDTYYADSVKGRFTISRDNAKNTVYVQMISLKPEDTAVYYCAAEGVTWYLWDFYDIYGYWGQGTQVNVSS”, for which the “polyreactivity (PSR sort gate)” value is “high polyreactivity”.

“QVQLVESWGALVQAGGSLRLSCAASRRTFALNAMGWYRQAPGKETELVAAITSSGGSSYYADSVKGRFTISRDIAKNSVYLLMNSLNPVDTAVYYCAADRHYGTEYAYDYWGEGTQVTVSS”: the “polyreactivity (PSR sort gate)” value is listed as “low polyreactivity”.

“QDQLVESRGGLVQAGGSLRLSCAASGFTFGRYAMGWYRQAPGKERELVAVITSSGGRTYYADSVKGRFTISRDNAKNTVYLQMNSLKPEDTAVYYCHKYPLRLYGYDYWGQGTQVTVSS”: the “polyreactivity (PSR sort gate)” value is “high polyreactivity”.

Turning to “QVQLVESGGGLLQAGGSLRISCAASGRIFGRYAMGWYRQAPGKERELVASISRGGSTNYADSVKGRFTISRDNAKNTVYLQMNSLKPEDTAVYYCAADLNAYPQRAYDYWGQGTQVTVSS”, the “polyreactivity (PSR sort gate)” value is recorded as “low polyreactivity”.

As to “QVQLVESGGGLVQAGGSLRLSCAASGSTFIGYAMGWYRQAPGKERELVAGIRWSGGRTYYADSVKGRFTISRDNAKNTVYLHMNSLKPEDTAVYYCNARFYASAKGYDYWGQGTQVTVSS”, the “polyreactivity (PSR sort gate)” value was “low polyreactivity”.
